Where no end group is shown, it is not given here. fluorescein = fluorescein label at the N-terminus
Target: T1, N-domain of ClpX (residue 1–64) (E. coli, UniProt P0A6H1 1-64)
T1 sequence (looked up): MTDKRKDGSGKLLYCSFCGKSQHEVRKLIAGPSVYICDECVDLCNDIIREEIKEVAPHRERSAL
Assay: fluorescence polarisation

B1: fluorescein-labeled E-tag peptide (MuA residues 614–633) (peptide)
peptide: fluorescein-ESRIVGIFRPSGNTERVKNQ
Q: B1 was tested. Which Kd did it give?
A: ~380 µM

From publication PMC4569521 (Journal of molecular biology, 2015)
